{"source": "the array DNA melting data of Ke et al.", "experiment": "melting temperature; melt of duplexes", "conditions": "sodium 0.0675 M; strand 1 µM", "data": [{"substance": "CGACGTGCGCTATGTGCTG+CAGCACATCCCGCACGTCG (((((((((..((((((((+))))))))..)))))))))", "values": [{"measurement": "Tm", "value": 52.1, "unit": "°C"}]}, {"substance": "CGACGTGCGCTATGTGCTG+CAGCACATCCTGCACGTCG ((((((((...((((((((+))))))))...))))))))", "values": [{"measurement": "Tm", "value": 48.1, "unit": "°C"}]}, {"substance": "CGACGTGCGCTATGTGCTG+CAGCACATCGGGCACGTCG ((((((((.(.((((((((+)))))))).).))))))))", "values": [{"measurement": "Tm", "value": 52, "unit": "°C"}]}, {"substance": "CGACGTGCGCTATGTGCTG+CAGCACATGCTGCACGTCG ((((((((...((((((((+))))))))...))))))))", "values": [{"measurement": "Tm", "value": 51.5, "unit": "°C"}]}, {"substance": "CGACGTGCGCTATGTGCTG+CAGCACATGTCGCACGTCG (((((((((..((((((((+))))))))..)))))))))", "values": [{"measurement": "Tm", "value": 54.8, "unit": "°C"}]}, {"substance": "CGACGTGCGCTATGTGCTG+CAGCACATGTTGCACGTCG ((((((((...((((((((+))))))))...))))))))", "values": [{"measurement": "Tm", "value": 49.6, "unit": "°C"}]}, {"substance": "CGACGTGCGCTATGTGCTG+CAGCACATTACGCACGTCG (((((((((..((((((((+))))))))..)))))))))", "values": [{"measurement": "Tm", "value": 53.4, "unit": "°C"}]}, {"substance": "CGACGTGCGCTATGTGCTG+CAGCACATTCCGCACGTCG (((((((((..((((((((+))))))))..)))))))))", "values": [{"measurement": "Tm", "value": 52.1, "unit": "°C"}]}, {"substance": "CGACGTGCGCTATGTGCTG+CAGCACATTGTGCACGTCG ((((((((.(.((((((((+)))))))).).))))))))", "values": [{"measurement": "Tm", "value": 51.9, "unit": "°C"}]}, {"substance": "CGACGTGCGCTATGTGCTG+CAGCACATTTGGCACGTCG ((((((((...((((((((+))))))))...))))))))", "values": [{"measurement": "Tm", "value": 49.2, "unit": "°C"}]}, {"substance": "CGACGTGCGCTATGTGCTG+CAGCACATTTTGCACGTCG ((((((((...((((((((+))))))))...))))))))", "values": [{"measurement": "Tm", "value": 48.3, "unit": "°C"}]}, {"substance": "CGACGTGCGGAATGTGCTG+CAGCACATAACGCACGTCG (((((((((..((((((((+))))))))..)))))))))", "values": [{"measurement": "Tm", "value": 58.6, "unit": "°C"}]}, {"substance": "CGACGTGCGGAATGTGCTG+CAGCACATAAGGCACGTCG ((((((((...((((((((+))))))))...))))))))", "values": [{"measurement": "Tm", "value": 51.5, "unit": "°C"}]}, {"substance": "CGACGTGCGGAATGTGCTG+CAGCACATAATGCACGTCG ((((((((...((((((((+))))))))...))))))))", "values": [{"measurement": "Tm", "value": 52, "unit": "°C"}]}, {"substance": "CGACGTGCGGAATGTGCTG+CAGCACATACAGCACGTCG ((((((((.(.((((((((+)))))))).).))))))))", "values": [{"measurement": "Tm", "value": 54.9, "unit": "°C"}]}, {"substance": "CGACGTGCGGAATGTGCTG+CAGCACATACCGCACGTCG ((((((((((.((((((((+)))))))).))))))))))", "values": [{"measurement": "Tm", "value": 60.2, "unit": "°C"}]}, {"substance": "CGACGTGCGGAATGTGCTG+CAGCACATAGCGCACGTCG (((((((((..((((((((+))))))))..)))))))))", "values": [{"measurement": "Tm", "value": 55.5, "unit": "°C"}]}, {"substance": "CGACGTGCGGAATGTGCTG+CAGCACATCAAGCACGTCG ((((((((...((((((((+))))))))...))))))))", "values": [{"measurement": "Tm", "value": 53.8, "unit": "°C"}]}, {"substance": "CGACGTGCGGAATGTGCTG+CAGCACATCCCGCACGTCG ((((((((((.((((((((+)))))))).))))))))))", "values": [{"measurement": "Tm", "value": 60.3, "unit": "°C"}]}, {"substance": "CGACGTGCGGAATGTGCTG+CAGCACATCCGGCACGTCG ((((((((.(.((((((((+)))))))).).))))))))", "values": [{"measurement": "Tm", "value": 55.7, "unit": "°C"}]}, {"substance": "CGACGTGCGGAATGTGCTG+CAGCACATCCTGCACGTCG ((((((((.(.((((((((+)))))))).).))))))))", "values": [{"measurement": "Tm", "value": 55.2, "unit": "°C"}]}, {"substance": "CGACGTGCGGAATGTGCTG+CAGCACATCGGGCACGTCG ((((((((...((((((((+))))))))...))))))))", "values": [{"measurement": "Tm", "value": 50, "unit": "°C"}]}, {"substance": "CGACGTGCGGAATGTGCTG+CAGCACATCGTGCACGTCG ((((((((...((((((((+))))))))...))))))))", "values": [{"measurement": "Tm", "value": 46.7, "unit": "°C"}]}, {"substance": "CGACGTGCGGAATGTGCTG+CAGCACATCTTGCACGTCG ((((((((...((((((((+))))))))...))))))))", "values": [{"measurement": "Tm", "value": 50.8, "unit": "°C"}]}, {"substance": "CGACGTGCGGAATGTGCTG+CAGCACATGCAGCACGTCG ((((((((.(.((((((((+)))))))).).))))))))", "values": [{"measurement": "Tm", "value": 59.9, "unit": "°C"}]}, {"substance": "CGACGTGCGGAATGTGCTG+CAGCACATGCCGCACGTCG ((((((((((.((((((((+)))))))).))))))))))", "values": [{"measurement": "Tm", "value": 62.1, "unit": "°C"}]}, {"substance": "CGACGTGCGGAATGTGCTG+CAGCACATGGAGCACGTCG ((((((((...((((((((+))))))))...))))))))", "values": [{"measurement": "Tm", "value": 62.8, "unit": "°C"}]}, {"substance": "CGACGTGCGGAATGTGCTG+CAGCACATGGGGCACGTCG ((((((((...((((((((+))))))))...))))))))", "values": [{"measurement": "Tm", "value": 52.9, "unit": "°C"}]}, {"substance": "CGACGTGCGGAATGTGCTG+CAGCACATGGTGCACGTCG ((((((((...((((((((+))))))))...))))))))", "values": [{"measurement": "Tm", "value": 52.2, "unit": "°C"}]}, {"substance": "CGACGTGCGGAATGTGCTG+CAGCACATGTAGCACGTCG ((((((((...((((((((+))))))))...))))))))", "values": [{"measurement": "Tm", "value": 60.4, "unit": "°C"}]}, {"substance": "CGACGTGCGGAATGTGCTG+CAGCACATGTTGCACGTCG ((((((((...((((((((+))))))))...))))))))", "values": [{"measurement": "Tm", "value": 52.8, "unit": "°C"}]}, {"substance": "CGACGTGCGGAATGTGCTG+CAGCACATTACGCACGTCG (((((((((.(((((((((+))))))))).)))))))))", "values": [{"measurement": "Tm", "value": 62, "unit": "°C"}]}, {"substance": "CGACGTGCGGAATGTGCTG+CAGCACATTATGCACGTCG ((((((((..(((((((((+)))))))))..))))))))", "values": [{"measurement": "Tm", "value": 55.4, "unit": "°C"}]}, {"substance": "CGACGTGCGGAATGTGCTG+CAGCACATTCCGCACGTCG (((((((((((((((((((+)))))))))))))))))))", "values": [{"measurement": "Tm", "value": 66.6, "unit": "°C"}]}, {"substance": "CGACGTGCGGAATGTGCTG+CAGCACATTCGGCACGTCG ((((((((.((((((((((+)))))))))).))))))))", "values": [{"measurement": "Tm", "value": 59.9, "unit": "°C"}]}, {"substance": "CGACGTGCGGAATGTGCTG+CAGCACATTCTGCACGTCG ((((((((.((((((((((+)))))))))).))))))))", "values": [{"measurement": "Tm", "value": 61.1, "unit": "°C"}]}, {"substance": "CGACGTGCGGAATGTGCTG+CAGCACATTGAGCACGTCG ((((((((..(((((((((+)))))))))..))))))))", "values": [{"measurement": "Tm", "value": 56.2, "unit": "°C"}]}, {"substance": "CGACGTGCGGAATGTGCTG+CAGCACATTGTGCACGTCG ((((((((..(((((((((+)))))))))..))))))))", "values": [{"measurement": "Tm", "value": 53.9, "unit": "°C"}]}, {"substance": "CGACGTGCGGAATGTGCTG+CAGCACATTTGGCACGTCG ((((((((..(((((((((+)))))))))..))))))))", "values": [{"measurement": "Tm", "value": 54.6, "unit": "°C"}]}, {"substance": "CGACGTGCGGAATGTGCTG+CAGCACATTTTGCACGTCG ((((((((..(((((((((+)))))))))..))))))))", "values": [{"measurement": "Tm", "value": 55.2, "unit": "°C"}]}, {"substance": "CGACGTGCGGCATGTGCTG+CAGCACATAAAGCACGTCG ((((((((...((((((((+))))))))...))))))))", "values": [{"measurement": "Tm", "value": 56, "unit": "°C"}]}, {"substance": "CGACGTGCGGCATGTGCTG+CAGCACATACCGCACGTCG ((((((((((.((((((((+)))))))).))))))))))", "values": [{"measurement": "Tm", "value": 60, "unit": "°C"}]}, {"substance": "CGACGTGCGGCATGTGCTG+CAGCACATAGAGCACGTCG ((((((((...((((((((+))))))))...))))))))", "values": [{"measurement": "Tm", "value": 56.4, "unit": "°C"}]}, {"substance": "CGACGTGCGGCATGTGCTG+CAGCACATAGGGCACGTCG ((((((((...((((((((+))))))))...))))))))", "values": [{"measurement": "Tm", "value": 49.5, "unit": "°C"}]}, {"substance": "CGACGTGCGGCATGTGCTG+CAGCACATAGTGCACGTCG ((((((((...((((((((+))))))))...))))))))", "values": [{"measurement": "Tm", "value": 45.9, "unit": "°C"}]}, {"substance": "CGACGTGCGGCATGTGCTG+CAGCACATATAGCACGTCG ((((((((...((((((((+))))))))...))))))))", "values": [{"measurement": "Tm", "value": 54.7, "unit": "°C"}]}, {"substance": "CGACGTGCGGCATGTGCTG+CAGCACATATCGCACGTCG (((((((((..((((((((+))))))))..)))))))))", "values": [{"measurement": "Tm", "value": 54.7, "unit": "°C"}]}, {"substance": "CGACGTGCGGCATGTGCTG+CAGCACATCAGGCACGTCG ((((((((...((((((((+))))))))...))))))))", "values": [{"measurement": "Tm", "value": 51, "unit": "°C"}]}, {"substance": "CGACGTGCGGCATGTGCTG+CAGCACATCCAGCACGTCG ((((((((.(.((((((((+)))))))).).))))))))", "values": [{"measurement": "Tm", "value": 53.9, "unit": "°C"}]}, {"substance": "CGACGTGCGGCATGTGCTG+CAGCACATCCCGCACGTCG ((((((((((.((((((((+)))))))).))))))))))", "values": [{"measurement": "Tm", "value": 58.3, "unit": "°C"}]}, {"substance": "CGACGTGCGGCATGTGCTG+CAGCACATCGAGCACGTCG ((((((((...((((((((+))))))))...))))))))", "values": [{"measurement": "Tm", "value": 53.6, "unit": "°C"}]}, {"substance": "CGACGTGCGGCATGTGCTG+CAGCACATCGGGCACGTCG ((((((((...((((((((+))))))))...))))))))", "values": [{"measurement": "Tm", "value": 49.6, "unit": "°C"}]}]}
